The record followed here is article PMC11240526, “Method for B Cell Receptor Enrichment in Malignant B Cells” (Cancers, 2024).

For experiment [1], the target named is CD79a (human (endogenous in Raji)) (UniProt P11912). As to the kind of experiment: co-IP; antibody to the bait (anti-CD79a, anti-CD79b or anti-IgM) with Protein G agarose beads; Raji membrane fraction solubilised in 1% Triton X-100 lysis buffer in PBS; overnight at 4 °C; bead eluate read by Western blot, band intensities normalised to protein load.
In a further experiment the target is T1, CD79a (human (endogenous in Raji), UniProt P11912 33-226).
T1 construct: CD79a (Igα), signalling subunit of the B cell receptor, human, endogenous in the Raji B lymphoblastoid cell line; the text prints P11912; also called Igα; Ig-alpha; source: endogenous, Raji cells, membrane fraction solubilised in Triton X-100 or DOC lysis buffer
T1 sequence (looked up): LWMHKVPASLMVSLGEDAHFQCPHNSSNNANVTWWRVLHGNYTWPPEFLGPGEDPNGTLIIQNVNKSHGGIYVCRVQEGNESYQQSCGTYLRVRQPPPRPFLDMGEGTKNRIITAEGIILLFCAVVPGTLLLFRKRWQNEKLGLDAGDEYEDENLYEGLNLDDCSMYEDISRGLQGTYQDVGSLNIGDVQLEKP
The experiment is described as above. Conditions: partners not purified.

In turn, “membrane immunoglobulin M (mIgM) of Raji cells (complex)” displayed a fold enrichment in the bead eluate over input (band intensity normalised to protein load) in experiment [1] of 30 fold.

B1: CD79b (natural protein, human (endogenous in Raji), UniProt P40259 29-229, looked up)
chain: ARSEDRYRNPKGSACSRIWQSPRFIARKRGFTVKMHCYMNSASGNVSWLWKQEMDENPQQLKLEKGRMEESQNESLATLTIQGIRFEDNGIYFCQQKCNNTSEVYQGCGTELRVMGFSTLAQLKQRNTLKDGIIMIQTLLIILFIIVPIFLLLDKDDSKAGMEEDHTYEGLDIDQTATYEDIVTLRTGEVKWSVGEHPGQE
notes: CD79b (Igβ), signalling subunit of the B cell receptor, human, endogenous in the Raji B lymphoblastoid cell line; also called Igβ; Ig-beta; source: endogenous, Raji cells, membrane fraction solubilised in Triton X-100 or DOC lysis buffer
As to B1, the “fold enrichment in the bead eluate over input (band intensity normalised to protein load)” value with CD79a was about 12 fold.
